According to patent US20200024322A1 (Eli Lilly, published 2020):
Numbered stars: 1 amine (or outer) side, 2 acyl side, 3 side chain; on linkers, the order of the positions; unused ones are H or OH. Square brackets hold non-standard residues; d marks the D form. Side chains are listed from the residue outwards. Ends that are not written are not given here. * marks the point of attachment. C20 diacid = O=C(O)CCCCCCCCCCCCCCCCCCC(=O)*; γGlu = O=C(O)[C@H](CCC(=O)[*:2])N[*:1]; AEEA = NCCOCCOCC(=O)O; Aib = CC(C)(N)C(=O)O

Experiments:
[1] = molecular target: T1, human GIP receptor (human, UniProt P48546 22-466); test: SPA, [125I]-GIP displacement, hGIPR membranes
T1 construct: whole, on cells; Used as crude membranes of stably transfected CHO cells; also called hGIPR
T1 sequence (looked up): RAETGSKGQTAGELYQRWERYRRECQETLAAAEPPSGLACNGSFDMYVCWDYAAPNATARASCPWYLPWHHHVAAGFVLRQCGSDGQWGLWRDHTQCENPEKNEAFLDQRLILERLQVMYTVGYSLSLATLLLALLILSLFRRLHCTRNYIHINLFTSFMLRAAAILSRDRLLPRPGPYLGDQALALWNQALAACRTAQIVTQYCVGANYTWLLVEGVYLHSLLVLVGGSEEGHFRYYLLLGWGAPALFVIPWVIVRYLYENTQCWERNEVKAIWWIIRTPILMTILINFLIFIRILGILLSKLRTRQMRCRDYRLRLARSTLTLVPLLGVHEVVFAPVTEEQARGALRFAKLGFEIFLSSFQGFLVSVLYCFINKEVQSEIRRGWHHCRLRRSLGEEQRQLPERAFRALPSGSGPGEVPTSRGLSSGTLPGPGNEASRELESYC

[2] = molecular target: T2, human glucagon receptor (human, UniProt P47871 26-477); test: SPA, [125I]-Gcg displacement, hGcgR membranes
T2 construct: whole, on cells; Used as crude membranes of stably transfected HEK293 cells; also called hGcgR; hGLcgR
T2 sequence (P47871 26-477): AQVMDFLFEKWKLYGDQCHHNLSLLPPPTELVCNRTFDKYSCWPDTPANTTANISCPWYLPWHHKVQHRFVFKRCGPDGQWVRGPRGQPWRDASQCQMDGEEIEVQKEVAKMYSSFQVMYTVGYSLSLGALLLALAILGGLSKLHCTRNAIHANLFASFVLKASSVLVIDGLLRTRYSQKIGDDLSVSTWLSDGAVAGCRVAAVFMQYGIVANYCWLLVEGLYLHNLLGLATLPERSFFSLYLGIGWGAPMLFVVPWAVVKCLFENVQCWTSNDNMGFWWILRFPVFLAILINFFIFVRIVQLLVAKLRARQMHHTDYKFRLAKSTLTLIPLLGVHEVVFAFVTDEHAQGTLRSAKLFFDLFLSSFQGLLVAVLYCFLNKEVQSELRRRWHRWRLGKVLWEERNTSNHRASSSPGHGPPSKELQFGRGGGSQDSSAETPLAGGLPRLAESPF

[3] = molecular target: T3, human GLP-1 receptor (human, UniProt P43220 24-463); test: SPA, [125I]-GLP-1 displacement, hGLP-1R membranes
T3 construct: whole, on cells; Used as crude membranes of stably transfected HEK293 cells; also called hGLP1R; hGLP-1R

B1: Example 6 (peptide)
peptide: Y[Aib]EGTFTSDYSILLDKK([AEEA-AEEA-γGlu-C20 diacid])AQ[Aib]AFIEYLLEGGPSSGAPPPS-NH2
modifications: N-terminus assumed
SMILES: CC[C@H](C)[C@H](NC(=O)[C@H](Cc1ccccc1)NC(=O)[C@H](C)NC(=O)C(C)(C)NC(=O)[C@H](CCC(N)=O)NC(=O)[C@H](C)NC(=O)[C@H](CCCCNC(=O)COCCOCCNC(=O)COCCOCCNC(=O)CC[C@H](NC(=O)CCCCCCCCCCCCCCCCCCC(=O)O)C(=O)O)NC(=O)[C@H](CCCCN)NC(=O)[C@H](CC(=O)O)NC(=O)[C@H](CC(C)C)NC(=O)[C@H](CC(C)C)NC(=O)[C@@H](NC(=O)[C@H](CO)NC(=O)[C@H](Cc1ccc(O)cc1)NC(=O)[C@H](CC(=O)O)NC(=O)[C@H](CO)NC(=O)[C@@H](NC(=O)[C@H](Cc1ccccc1)NC(=O)[C@@H](NC(=O)CNC(=O)[C@H](CCC(=O)O)NC(=O)C(C)(C)NC(=O)[C@@H](N)Cc1ccc(O)cc1)[C@@H](C)O)[C@@H](C)O)[C@@H](C)CC)C(=O)N[C@@H](CCC(=O)O)C(=O)N[C@@H](Cc1ccc(O)cc1)C(=O)N[C@@H](CC(C)C)C(=O)N[C@@H](CC(C)C)C(=O)N[C@@H](CCC(=O)O)C(=O)NCC(=O)NCC(=O)N1CCC[C@H]1C(=O)N[C@@H](CO)C(=O)N[C@@H](CO)C(=O)NCC(=O)N[C@@H](C)C(=O)N1CCC[C@H]1C(=O)N1CCC[C@H]1C(=O)N1CCC[C@H]1C(=O)N[C@@H](CO)C(N)=O
In the case of B1, the Ki [1] is reported as 0.0835 nM, the Ki [2] is reported as 55.8 nM and the Ki [3] is reported as 6.71 nM.

B2: Example 8 (peptide)
peptide: YXEGTFTSDYSILLDKKAQXAFIEYLIEGGPSSGAPPPS
modifications: Aib2; K17((2-[2-(2-Amino-ethoxy)-ethoxy]-acetyl)2-(γ-Glu)-CO-(CH2)18-CO2H); Aib20; C-terminal NH2
With B2 the Ki [1] was 0.0772 nM, the Ki [2] was 206 nM and the Ki [3] was 2.84 nM.

B3: Example 7 (peptide)
peptide: Y[Aib]EGTFTSDYSILLDSK([AEEA-AEEA-γGlu-C20 diacid])AQ[Aib]AFIEYLLEGGPSSGAPPPS-NH2
modifications: N-terminus assumed
SMILES: CC[C@H](C)[C@H](NC(=O)[C@H](Cc1ccccc1)NC(=O)[C@H](C)NC(=O)C(C)(C)NC(=O)[C@H](CCC(N)=O)NC(=O)[C@H](C)NC(=O)[C@H](CCCCNC(=O)COCCOCCNC(=O)COCCOCCNC(=O)CC[C@H](NC(=O)CCCCCCCCCCCCCCCCCCC(=O)O)C(=O)O)NC(=O)[C@H](CO)NC(=O)[C@H](CC(=O)O)NC(=O)[C@H](CC(C)C)NC(=O)[C@H](CC(C)C)NC(=O)[C@@H](NC(=O)[C@H](CO)NC(=O)[C@H](Cc1ccc(O)cc1)NC(=O)[C@H](CC(=O)O)NC(=O)[C@H](CO)NC(=O)[C@@H](NC(=O)[C@H](Cc1ccccc1)NC(=O)[C@@H](NC(=O)CNC(=O)[C@H](CCC(=O)O)NC(=O)C(C)(C)NC(=O)[C@@H](N)Cc1ccc(O)cc1)[C@@H](C)O)[C@@H](C)O)[C@@H](C)CC)C(=O)N[C@@H](CCC(=O)O)C(=O)N[C@@H](Cc1ccc(O)cc1)C(=O)N[C@@H](CC(C)C)C(=O)N[C@@H](CC(C)C)C(=O)N[C@@H](CCC(=O)O)C(=O)NCC(=O)NCC(=O)N1CCC[C@H]1C(=O)N[C@@H](CO)C(=O)N[C@@H](CO)C(=O)NCC(=O)N[C@@H](C)C(=O)N1CCC[C@H]1C(=O)N1CCC[C@H]1C(=O)N1CCC[C@H]1C(=O)N[C@@H](CO)C(N)=O
In the case of B3, the Ki [1] is reported as 0.252 nM, the Ki [2] is reported as 198 nM and the Ki [3] is reported as 43.3 nM.
